The record followed here is US20080020978A1 (Amgen, published 2008).

Numbered stars: 1 amine (or outer) side, 2 acyl side, 3 side chain; on linkers, the order of the positions; unused ones are H or OH. Square brackets hold non-standard residues; d marks the D form. Ends that are not written are not given here. * marks the point of attachment. 20 kDa MeO‑PEG = methoxy-polyethylene glycol of 20 kDa conjugated to the residue side chain; 13C1,2Ac = N-terminal acetyl group labelled with 13C at carbons 1 and 2, [13CH3][13C](=O)*; 15N‑F = phenylalanine labelled with 15N, O=C([C@H](Cc1ccccc1)[15NH][*:1])[*:2]; Cit = NC(=O)NCCC[C@H](N)C(=O)O A value given as a limit tells only on which side of the number the result lay.

The target of assay [1] is T1, CGRP1 receptor (CRLR/RAMP1 complex) of human neuroblastoma SK-N-MC cells (human, UniProt Q16602 23-461; O60894 27-148). The assay can be described thus: cell-based or functional assay.
T1 sequence (Q16602 23-461, chain 1 of 2): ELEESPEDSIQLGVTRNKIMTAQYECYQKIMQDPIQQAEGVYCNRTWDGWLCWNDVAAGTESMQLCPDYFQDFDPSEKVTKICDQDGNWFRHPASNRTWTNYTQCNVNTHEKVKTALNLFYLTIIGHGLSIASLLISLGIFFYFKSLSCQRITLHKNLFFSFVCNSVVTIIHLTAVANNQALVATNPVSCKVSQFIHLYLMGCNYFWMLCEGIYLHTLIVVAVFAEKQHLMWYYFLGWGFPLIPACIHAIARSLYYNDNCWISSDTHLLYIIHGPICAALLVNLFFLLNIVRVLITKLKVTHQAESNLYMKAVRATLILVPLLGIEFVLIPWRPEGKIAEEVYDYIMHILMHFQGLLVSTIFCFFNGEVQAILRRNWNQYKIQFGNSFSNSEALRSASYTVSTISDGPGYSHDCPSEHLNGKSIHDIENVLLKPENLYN
T1 sequence (O60894 27-148, chain 2 of 2): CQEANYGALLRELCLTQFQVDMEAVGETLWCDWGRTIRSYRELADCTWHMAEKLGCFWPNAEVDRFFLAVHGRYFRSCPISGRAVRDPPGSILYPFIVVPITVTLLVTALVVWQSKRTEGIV
Assay [2] deals with T1, CGRP1 receptor (CRLR/RAMP1 complex) of …. The assay can be described thus: 125I-hαCGRP competition, SK-N-MC membranes. The method, then: CGRP₁ binding experiments. […] The plates were incubated at room temperature for 2 hour with shaking at 60 rpm, then the contents of each well were filtered over 0.5% polyethyleneimine (PEI)-treated (at least one hour) GF/C 96-well filter plates. The GF/C filter plates were washed 6 times with ice-cold 50 mM Tris, pH 7.5 and dried in an oven at 55 C for 1 hour. The bottoms of the GF/C plates were then sealed, and 40 μl Microscint™ 20 was added to each well, then the tops of the GF/C plates were sealed with TopSeal™-A, a press-on adhesive sealing film, and the GF/C plates were counted with TopCount NXT (Packard). The data were analyzed by using ActivityBase (IDBS) or Prizm (GraphPad) software.

B1: SEQ ID NO 823 (peptide)
peptide: Ac-WVTHRLAGLLSRSGGVKRNNFVPTDVGPFAF-NH2
Consider B1, for which the “IC50” value in assay [1] came out at 0.51 nM.

B2: SEQ ID NO 852 (peptide)
peptide: Ac-WVTH[Cit]LAGLAS[Cit]SGGVVRKNFVPTDVGPFAF-NH2
In the case of B2, the “IC50” value in assay [1] worked out at 23.4 nM.

B3: SEQ ID NO 853 (peptide)
peptide: Ac-WVTH[Cit]LAGLAS[Cit]SGGVVRK(20 kDa MeO‑PEG)NFVPTDVGPFAF-NH2
For the molecule B3, the “IC50” value in assay [1] is > 1000 nM.

B4: SEQ ID NO 815 (peptide)
peptide: Ac-WVTHRLAGLLSQSGGVVRK(20 kDa MeO‑PEG)NFVPTDVGPFAF-NH2
B4: inhibition in assay [1] was half-maximal at 0.46 nM (IC50).

B5: SEQ ID NO 693 (peptide)
peptide: VTHRLAGLLSRSGGVVKCNFVPTNVGSKAF
modifications: VTHRLAGLLSRSGGVVKC^(5 kDa MeO-PEG)NFVPTNVGSKAF-amide
In assay [2], B5 returned an inhibitory constant (Ki) of 17.5 nM.

B6: SEQ ID NO 691 (peptide)
peptide: VTHRLAGLLSRSGGVVC(MeO‑PEG 5 kDa)NNFVPTNVGSKAF-NH2
For B6, the Ki in assay [2] was 157 nM.

B7: SEQ ID NO 851 (peptide)
peptide: Ac-WVTHRLAGLAS[Cit]SGGVVRK(MeO‑PEG 20 kDa)NFVPTDVGPFAF-NH2
On to B7, for which, in assay [1], the “IC50” value amounted to 228 nM.

B8: SEQ ID NO 850 (peptide)
peptide: Ac-WVTHRLAGLAS[Cit]SGGVVRKNFVPTDVGPFAF-NH2
SMILES: CC(=O)N[C@@H](Cc1c[nH]c2ccccc12)C(=O)N[C@H](C(=O)N[C@H](C(=O)N[C@@H](Cc1c[nH]cn1)C(=O)N[C@@H](CCCNC(=N)N)C(=O)N[C@@H](CC(C)C)C(=O)N[C@@H](C)C(=O)NCC(=O)N[C@@H](CC(C)C)C(=O)N[C@@H](C)C(=O)N[C@@H](CO)C(=O)N[C@@H](CCCNC(N)=O)C(=O)N[C@@H](CO)C(=O)NCC(=O)NCC(=O)N[C@H](C(=O)N[C@H](C(=O)N[C@@H](CCCNC(=N)N)C(=O)N[C@@H](CCCCN)C(=O)N[C@@H](CC(N)=O)C(=O)N[C@@H](Cc1ccccc1)C(=O)N[C@H](C(=O)N1CCC[C@H]1C(=O)N[C@H](C(=O)N[C@@H](CC(=O)O)C(=O)N[C@H](C(=O)NCC(=O)N1CCC[C@H]1C(=O)N[C@@H](Cc1ccccc1)C(=O)N[C@@H](C)C(=O)N[C@@H](Cc1ccccc1)C(N)=O)C(C)C)[C@@H](C)O)C(C)C)C(C)C)C(C)C)[C@@H](C)O)C(C)C
Take B8: in assay [1], it took 1.85 nM to reach half-maximal inhibition (IC50).

B9: SEQ ID NO 855 (peptide)
peptide: Ac-WVTHRLAGLLSRPGGVVRK(20 kDa MeO‑PEG)NFVPTDVGPFAF-NH2
Regarding B9, the “IC50” value in assay [1] is 18 nM.

B10: SEQ ID NO 824 (peptide)
peptide: Ac-WVTHRLAGLLSRSGGVK(20 kDa MeO‑PEG)RNNFVPTDVGPFAF-NH2
Consider B10, for which inhibition in assay [1] was half-maximal at 0.98 nM (IC50). This IC50 lies about 18-fold lower than the previous one.

B11: SEQ ID NO 803 (peptide)
peptide: {13C1,2Ac}-WVTHRLAGLLSRSGGVVRK(20 kDa MeO‑PEG)NFVPTDVGPFA[15N‑F]-NH2
As to B11, the “IC50” value in assay [1] is 3.28 nM.

B12: SEQ ID NO 690 (peptide)
peptide: C(MeO‑PEG 5 kDa)GGGGGGGVTHRLAGLLSRSGGVVKNNFVPTNVGSKAF-NH2
Consider B12, for which affinity in assay [2] was put at a Ki of 3070 nM. This lies in the single-digit micromolar range.

B13: SEQ ID NO 692 (peptide)
peptide: CGGGGGGGVTHRLAGLLSRSGGVVKNNFVPTDVGPFAF-NH2
modifications: not fully specified (residue 1)
In assay [2], B13 returned a Ki of 20.8 nM.

B14: SEQ ID NO 820 (peptide)
peptide: Ac-WVTHRLAGLLSRSGGVCRNNFVPTDVGPFAF-NH2
For the molecule B14, the “IC50” value in assay [1] worked out at 0.36 nM. In other words, the sub-nanomolar range.

B15: SEQ ID NO 814 (peptide)
peptide: Ac-WVTHRLAGLLSQSGGVVRKNFVPTDVGPFAF-NH2
For the molecule B15, half-maximal inhibition in assay [1] (IC50) was put at 0.47 nM.

B16: SEQ ID NO 689 (peptide)
peptide: WVTHRLAGLLSRSGGVVKCNFVPTDVGPFAF-NH2
Turning to B16, the Ki in assay [2] stood at 0.95 nM. That is a sub-nanomolar value.

B17: SEQ ID NO 818 (peptide)
peptide: Ac-WVTHQLAGLLSQSGGVVRK(20 kDa MeO‑PEG)NFVPTDVGPFAF-NH2
As to B17, in assay [1], the “IC50” value was 7.18 nM. This lies in the single-digit nanomolar range.

B18: SEQ ID NO 232 (peptide)
peptide: Ac-WVTHRLAGLLSRSGGVVKC(PEG 30 kDa)NFVPTDVGPFAF-NH2
In assay [2], B18 returned a Ki of 0.27 nM.

B19: SEQ ID NO 230 (peptide)
peptide: Ac-VTHRLAGLLSRSGGVVRK(20 kDa PEG)NFVPTDVGPFAF-NH2
In turn, B19 had a Ki in assay [2] of 0.17 nM.

B20: SEQ ID NO 694 (peptide)
peptide: VTHRLAGLLSRSGGVVKCNFVPTNVGSKAF
modifications: VTHRLAGLLSRSGGVVKC^(5 kDa MeO-PEG)NFVPTNVGSKAF-amide
As to B20, the Ki in assay [2] was determined as 31.8 nM.

B21: SEQ ID NO 816 (peptide)
peptide: Ac-WVTHQLAGLLSQSGGVVRKNFVPTDVGPFAF-NH2
For B21, the “IC50” value in assay [1] came out at 0.53 nM.

B22: SEQ ID NO 854 (peptide)
peptide: Ac-WVTHRLAGLLSRPGGVVRKNFVPTDVGPFAF-NH2
As to B22, the “IC50” value in assay [1] is 1.27 nM.

B23: SEQ ID NO 231 (peptide)
peptide: Ac-WVTHRLAGLLSRSGGVVKCNFVPTDVGPFAF-NH2
modifications: not fully specified (residue 19); printed as Ac-WVTHRLAGLLSRSGGVVKC^(20 kDa PEG)NFVPTDVGPFAF-amide
In assay [2], B23 displayed a Ki of 0.27 nM.

B24: SEQ ID NO 680 (peptide)
peptide: Ac-WVTHRLAGLLSRSGGVVRCNFVPTDVGPFAF-NH2
Regarding B24, the affinity in assay [2] corresponds to a Ki of 0.58 nM.

B25: SEQ ID NO 682 (peptide)
peptide: Ac-WVTHRLAGLLSRSGGVVCNNFVPTDVGPFAF-NH2
B25: the Ki in assay [2] worked out at 0.34 nM. This Ki lies about 1.7-fold lower than the previous one.

B26: SEQ ID NO 683 (peptide)
peptide: Ac-WVTHRLAGLLSRSGGVVCNNFVPTDVGPFAF-NH2
modifications: not fully specified (residue 18); printed as Ac-WVTHRLAGLLSRSGGVVC^(20 kDa PEG)NNFVPTDVGPFAF-amide
Regarding B26, the affinity in assay [2], expressed as Ki, was 1.58 nM. Compared with the last molecule, the Ki is about 4.6-fold higher.

B27: SEQ ID NO 695 (peptide)
peptide: WVTHRLAGLLSRSGGVVKCNFVPTNVGSKAF
modifications: WVTHRLAGLLSRSGGVVKC^(5 kDa MeO-PEG)NFVPTNVGSKAF-amide
In assay [2], B27 registered a Ki of 5.44 nM.

B28: SEQ ID NO 681 (peptide)
peptide: Ac-WVTHRLAGLLSRSGGVVRCNFVPTDVGPFAF-NH2
modifications: not fully specified (residue 19); printed as Ac-WVTHRLAGLLSRSGGVVRC^(20 kDa PEG)NFVPTDVGPFAF-amide
Molecule B28 came in with a Ki in assay [2] of 0.6 nM.

B29: SEQ ID NO 684 (peptide)
peptide: Ac-WVTHRLAGLLSRSGGVVKNNFVPTDVGPFAF-NH2
Regarding B29, the Ki in assay [2] was determined as 0.08 nM.

B30: SEQ ID NO 697 (peptide)
peptide: C(MeO‑PEG 5 kDa)GGGGGGGWVTHRLAGLLSRSGGVVKNNFVPTDVGPFAF-NH2
In turn, B30 displayed a Ki in assay [2] of 5.74 nM.

B31: SEQ ID NO 821 (peptide)
peptide: Ac-WVTHRLAGLLSRSGGVC(20 kDa MeO‑PEG)RNNFVPTDVGPFAF-NH2
On to B31, for which, in assay [1], the 50% inhibitory concentration (IC50) is 0.16 nM. This lies in the sub-nanomolar range.

B32: SEQ ID NO 696 (peptide)
peptide: WVTHRLAGLLSRSGGVVKC(MeO‑PEG 5 kDa)NFVPTDVGPFAF-NH2
In the case of B32, the inhibition constant Ki in assay [2] turned out to be 0.21 nM. This lies in the sub-nanomolar range.

B33: SEQ ID NO 798 (peptide)
peptide: WVTHXLAGLLSRSGGVVRKNFVPTDVGPFAF
modifications: Ac-WVTH[Cit]LAGLLSRSGGV VRKNFVPTDVGPFAF-amide
In the case of B33, in assay [1], the “IC50” value was found to be 0.57 nM.

B34: SEQ ID NO 801 (peptide)
peptide: WVTHRLAGLLSRSGGVVRNCFVPTDVGPFAF
modifications: Ac-WVTHRLAGLLSRSGGVVRNC^(20 kDa MeO-PEG)FVPTDVGPFAF-amide
On to B34, for which half-maximal inhibition in assay [1] (IC50) was put at 1.64 nM.

B35: SEQ ID NO 172 (peptide)
peptide: WVTHXLAGLLSXSGGVVXKNFVPTDVGXFAF
modifications: Ac-WVTH[Cit]LAGLLS[Cit]SGGVV[hArg]K(20 KPEGald)NFVPTDVG[Oic]FAF-NH2
Molecule B35 registered a Ki in assay [2] of 1.27 nM.

B36: SEQ ID NO 674 (peptide)
peptide: WVTHXLAGLLSXSGGVVXKNFVPTDVGPXAF
modifications: Ac-WVTH[Cit]LAGLLS[Cit]SGGVV[hArg]KNFVPTDVGP[1-Nal]AF-NH2
B36: the Ki in assay [2] stood at 0.64 nM.

B37: SEQ ID NO 799 (peptide)
peptide: WVTHXLAGLLSRSGGVVRKNFVPTDVGPFAF
modifications: Ac-WVTH[Cit]LAGLLSRSGGV VRK^(20 kDa MeO-PEG)NFVPTDVGPFAF-amide
Take B37: the half-inhibitory concentration (IC50) in assay [1] worked out at 2.08 nM.

B38: SEQ ID NO 229 (peptide)
peptide: Ac-VTHRLAGLLSRSGGVVRK(PEG 5 kDa)NFVPTDVGPFAF-NH2
For the molecule B38, the affinity in assay [2] corresponds to a Ki of 0.06 nM.

B39: SEQ ID NO 817 (peptide)
peptide: Ac-WVTHQLAGLLSQSGGVVRK(20 kDa MeO‑PEG)NFVPTDVGPFAF-NH2
With B39, 5.24 nM corresponded to half-maximal inhibition in assay [1] (IC50).
